{"source": "paper PMC10065947", "about": "(Nature chemical biology, 2022)", "binders": {"B1": {"name": "naïve fusion of WT Fyn-SH3 and WT COMT (enzyme)", "chain": "not shown"}}, "biological_target": "TAMRA-APP12 (peptide S1) (TAMRA label (position not given); C-terminal amide)", "assay": "fluorescence polarisation", "data": [{"binder": "B1", "values": [{"measurement": "Kd", "value": 330, "unit": "nM"}]}]}
